Reference: patent EP2338512A1 (MedImmune, LLC, dated 2011)

Experiments:
[1] = biological target: T1, RSV F glycoprotein (NUF4) (respiratory syncytial virus (strain not …)); assay: ITC, NUF4 titrated into antibody
[2] = biological target: T1, RSV F glycoprotein (NUF4); assay: BIAcore, monoclonal antibody vs NUF4 (1:1)
[3] = biological target: T1, RSV F glycoprotein (NUF4); assay: BIAcore, monoclonal antibody vs NUF4 (2:1)
Bac-F = assay: BIAcore, monoclonal antibody vs Bac-F (1:1)

B1: A4B4 (monoclonal antibody) (antibody, V domains shown)
VH: QVTLRESGPALVKPTQTLTLTCTFSGFSLSTAGMSVGWIRQPPGKALEWLADIWWDDKKHYNPSLKDRLTISKDTSKNQVVLKVTNMDPADTATYYCARDMIFNFYFDVWGQGTTVTVSS
VL: DIQMTQSPSTLSASVGDRVTITCSASSRVGYMHWYQQKPGKAPKLLIYDTFFLDSGVPSRFSGSGSGTEFTLTISSLQPDDFATYYCFQGSGYPFTFGGGTKLEIK
- ΔHb [1]: 22.2 kcal/mol
- number in parentheses after KD (ratio to SYNAGIS, which has 1) [2]: 15 fold
- number in parentheses after KD (ratio to SYNAGIS, which has 1) [3]: 156 fold
- number in parentheses after KD (ratio to SYNAGIS, which has 1) (Bac-F): 195 fold
